Target: recombinant wild type echinenone-binding protein from Evechinus chloroticus (apo-rEBP) (Evechinus chloroticus)
Experiment: SEC; HiPrep 16/60 Sephacryl S-100 HR gel-permeation column, non-reducing conditions, 50 mM HEPES pH 8.0, 0.1 M NaCl, 10% v/v glycerol; final purification step; molecular weights estimated from the manufacturer's column standard curve

- stoichiometry N: 2
Substance: recombinant wild type echinenone-binding protein from Evechinus chloroticus (apo-rEBP) (natural protein)
